Changes are numbered by the printed parent chain.
B1: CE115HA000 H chain altered form S52cA (antibody, human IgG1, kappa, L234A L235A, N297A, name in Kabat numbering)
heavy: QVQLVESGGGVVQPGRSLRLSCAASGFTFSNAWMHWVRQAPGKGLEWVAQIKAKANNYATYYAESVKGRFTISRDDSKNSLYLQMNSLKTEDTAVYYCRYVHYGAYYGVDAWGQGTTVTVSSASTKGPSVFPLAPSSKSTSGGTAALGCLVKDYFPEPVTVSWNSGALTSGVHTFPAVLQSSGLYSLSSVVTVPSSSLGTQTYICNVNHKPSNTKVDKKVEPKSCDKTHTCPPCPAPEAAGGPSVFLFPPKPKDTLMISRTPEVTCVVVDVSHEDPEVKFNWYVDGVEVHNAKTKPREEQYASTYRVVSVLTVLHQDWLNGKEYKCKVSNKALPAPIEKTISKAKGQPREPQVYTLPPSRCELTKNQVSLSCAVKGFYPSDIAVEWESNGQPENNYKTTPPVLDSDGSFFLVSKLTVDKSRWQQGNVFSCSVMHEALHNHYTQKSLSLSPDYKDDDDK
chain: EPKSSDKTHTCPPCPAPELLGGPSVFLFPPKPKDTLMISRTPEVTCVVVDVSHEDPEVKFNWYVDGVEVHNAKTKPREEQYNSTYRVVSVLTVLHQDWLNGKEYKCKVSNKALPAPIEKTISKAKGQPREPQVCTLPPSRDELTKNQVSLWCLVKGFYPSDIAVEWESNGQPENNYKTTPPVLDSDGSFFLYSKLTVDKSRWQQGNVFSCSVMHEALHNRYTQKSLSLSP
light: DIVMTQSPLSLPVTPGEPASISCRSSQSLVHSNRNTYLHWYQQKPGQAPRLLIYKVSNRFSGVPDRFSGSGSGTDFTLKISRVEAEDVGVYYCGQGTQVPYTFGQGTKLEIKRTVAAPSVFIFPPSDEQLKSGTASVVCLLNNFYPREAKVQWKVDNALQSGNSQESVTEQDSKDSTYSLSSTLTLSKADYEKHKVYACEVTHQGLSSPVTKSFNRGEC
notes: one-arm antibody
B2: CE115HA000 H chain altered form W33H (antibody, human IgG1, kappa, L234A L235A, N297A, name in Kabat numbering)
heavy: B1 heavy with W33H, A55S
chain: B1 chain
light: B1 light
notes: one-arm antibody
B3: CE115HA000 H chain altered form S52cV (antibody, human IgG1, kappa, L234A L235A, N297A, name in Kabat numbering)
heavy: B1 heavy with A55V
chain: B1 chain
light: B1 light
notes: one-arm antibody
B4: CE115HA000 H chain altered form W33F (antibody, human IgG1, kappa, L234A L235A, N297A, name in Kabat numbering)
heavy: B1 heavy with W33F, A55S
chain: B1 chain
light: B1 light
notes: one-arm antibody
B5: CE115HA000 H chain altered form T57K (antibody, human IgG1, kappa, L234A L235A, N297A, name in Kabat numbering)
heavy: B1 heavy with A55S, T60K
chain: B1 chain
light: B1 light
notes: one-arm antibody
B6: CE115HA000 H chain altered form W33Y (antibody, human IgG1, kappa, L234A L235A, N297A, name in Kabat numbering)
heavy: B1 heavy with W33Y, A55S
chain: B1 chain
light: B1 light
notes: one-arm antibody
B7: CE115HA000 H chain altered form S52cL (antibody, human IgG1, kappa, L234A L235A, N297A, name in Kabat numbering)
heavy: B1 heavy with A55L
chain: B1 chain
light: B1 light
notes: one-arm antibody
B8: CE115HA000 H chain altered form W33L (antibody, human IgG1, kappa, L234A L235A, N297A, name in Kabat numbering)
heavy: B1 heavy with W33L, A55S
chain: B1 chain
light: B1 light
notes: one-arm antibody
B9: CE115HA000 H chain altered form S52cK (antibody, human IgG1, kappa, L234A L235A, N297A, name in Kabat numbering)
heavy: B1 heavy with A55K
chain: B1 chain
light: B1 light
notes: one-arm antibody
B10: CE115HA000 H chain altered form S52cY (antibody, human IgG1, kappa, L234A L235A, N297A, name in Kabat numbering)
heavy: B1 heavy with A55Y
chain: B1 chain
light: B1 light
notes: one-arm antibody
B11: CE115HA000 H chain altered form T28S (antibody, human IgG1, kappa, L234A L235A, N297A, name in Kabat numbering)
heavy: B1 heavy with T28S, A55S
chain: B1 chain
light: B1 light
notes: one-arm antibody
B12: CE115HA000 H chain altered form T28D (antibody, human IgG1, kappa, L234A L235A, N297A, name in Kabat numbering)
heavy: B1 heavy with T28D, A55S
chain: B1 chain
light: B1 light
notes: one-arm antibody
B13: CE115HA000 H chain altered form S52cQ (antibody, human IgG1, kappa, L234A L235A, N297A, name in Kabat numbering)
heavy: B1 heavy with A55Q
chain: B1 chain
light: B1 light
notes: one-arm antibody
B14: CE115HA000 H chain altered form T57N (antibody, human IgG1, kappa, L234A L235A, N297A, name in Kabat numbering)
heavy: B1 heavy with A55S, T60N
chain: B1 chain
light: B1 light
notes: one-arm antibody
B15: CE115HA000 H chain altered form T57I (antibody, human IgG1, kappa, L234A L235A, N297A, name in Kabat numbering)
heavy: B1 heavy with A55S, T60I
chain: B1 chain
light: B1 light
notes: one-arm antibody
B16: CE115HA000 H chain altered form S52cD (antibody, human IgG1, kappa, L234A L235A, N297A, name in Kabat numbering)
heavy: B1 heavy with A55D
chain: B1 chain
light: B1 light
notes: one-arm antibody
B17: CE115HA000 H chain altered form T57A (antibody, human IgG1, kappa, L234A L235A, N297A, name in Kabat numbering)
heavy: B1 heavy with A55S, T60A
chain: B1 chain
light: B1 light
notes: one-arm antibody
B18: CE115HA000 H chain altered form W33A (antibody, human IgG1, kappa, L234A L235A, N297A, name in Kabat numbering)
heavy: B1 heavy with W33A, A55S
chain: B1 chain
light: B1 light
notes: one-arm antibody
B19: CE115HA000 H chain altered form S52cF (antibody, human IgG1, kappa, L234A L235A, N297A, name in Kabat numbering)
heavy: B1 heavy with A55F
chain: B1 chain
light: B1 light
notes: one-arm antibody
B20: CE115HA000 H chain altered form S52cG (antibody, human IgG1, kappa, L234A L235A, N297A, name in Kabat numbering)
heavy: B1 heavy with A55G
chain: B1 chain
light: B1 light
notes: one-arm antibody
B21: CE115HA000 H chain altered form W33D (antibody, human IgG1, kappa, L234A L235A, N297A, name in Kabat numbering)
heavy: B1 heavy with W33D, A55S
chain: B1 chain
light: B1 light
notes: one-arm antibody
B22: CE115HA000 H chain altered form Y55D (antibody, human IgG1, kappa, L234A L235A, N297A, name in Kabat numbering)
heavy: B1 heavy with A55S, Y58D
chain: B1 chain
light: B1 light
notes: one-arm antibody
B23: CE115HA000 H chain altered form V11L (antibody, human IgG1, kappa, L234A L235A, N297A, name in Kabat numbering)
heavy: B1 heavy with V11L, A55S
chain: B1 chain
light: B1 light
notes: one-arm antibody

target: T1, CD3 epsilon homodimer protein (UniProt P07766 23-126); test: SPR Biacore T200, CD3 epsilon homodimer on chip, antibody as analyte;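 further: homodimer amine-coupled to a CM4 sensor chip, run at 25 °C in HBS-EP+ buffer, with kinetic parameters derived in Biacore T200 Evaluation Software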
T1 construct: also called CD3 (CD3 epsilon)
T1 sequence (P07766 23-126): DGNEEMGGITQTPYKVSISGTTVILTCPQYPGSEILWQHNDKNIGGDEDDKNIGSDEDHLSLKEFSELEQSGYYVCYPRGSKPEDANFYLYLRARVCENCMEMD
Description: An appropriate amount of CD3 epsilon homodimer protein was immobilized onto Sensor chip CM4 (GE Healthcare Japan Corp.) by the amine coupling method. Then, the antibody having an appropriate concentration was injected thereto as an analyte and allowed to interact with the CD3 epsilon homodimer protein on the sensor chip. Then, the sensor chip was regenerated by the injection of 10 mmol/L glycine-HCl (pH 1.5). The assay was conducted at 25 degrees C., and HBS-EP+(GE Healthcare Japan Corp.) was used as a running buffer. […] Each parameter was calculated using Biacore T200 Evaluation Software (GE Healthcare Japan Corp.).
Specifically, when the amount of the antibody comprising CE115HA000 bound was defined as X and the amount of the H chain one-amino acid altered form bound was defined as Y, a value of Z (ratio of amounts bound)=Y/X was used.

Binder	KD ratio (KD of CE115HA000 / KD of altered form)
B1	0.67
B2	4.96
B3	0.82
B4	0.66
B5	1.22
B6	0.69
B7	0.94
B8	56600
B9	0.88
B10	0.87
B11	0.79
B12	0.93
B13	0.97
B14	0.9
B15	0.81
B16	0.55
B17	0.87
B18	30
B19	0.93
B20	0.81
B21	1690
B22	0.89
B23	0.83

Reference: patent US20240270846A1 (published 2024)
